# Data from the DeepSol protein solubility set.
# Test: soluble on expression in E. coli; label from the status in PepcDB or PDB records
row,Sequence,soluble on expression in E. coli
1,MEEARLLVTCPDRPGIVAAVSGFLYAHGANITDLQQHSTDPEGGTFFMRVAFTASHLDLARPALERAFQEVVASRFQMQWRLAYASERKRTAILVSKPAHALLELLWRYRVGELPMELRLVISNHPDHREEVERFGIPYHHVPVEKGRKEEAEERILALLEAEGVELVVLARYMQILSPGFVERFPMRIINIHHSFLPAFAGADPYRQAYERGVKLIGATAHYVTEELDQGPIIEQDVVRVSHRHSVREMKRLGRELERTVLARAVRWHLEDRILVHENRTVVFV,soluble
2,MGSDKIHHHHHHMKIKNDLIYDEIHALKADLYQPDNASKGLIIDIHGGGWFRGDKAKDQDLAEALVKDGFSVIVPNYRLTPDAYYPAPLDDMDTLYHWIKTSSKLFDSDRIAVVGSSAGGNMAVEMGIKYGLPIVSLSGILDIDDWLNEHTAVIAQPDHKQDFTNSKSSEINQTGQNDAFYKWFVTNYFNGNSDQYSLATPYKHVNSQPGPMFLANSLNEFVPTSGVLEMAKILTSKNVPYVEWMLPGTQHAKGYLEIVYPTVLNFLNQYI,not soluble
3,MKVVGLDLGGTKIAAGVFDGKRLLSKVVVPTPKEGGERVAEALAEAAERAEREAGVRGEAIGLGTPGPLDFRRGVIRFAPNIPGVQDFPIRRILEEATGRPVFLENDANAAALAEHHLGAAQGEESSLYLTVSTGIGGGVVLGGRVLRGERGQGGELGHLTLLPGGPACGCGLEGCLEALAAGRALERDATYAFQRPVDTRELFRLFQAGDPKAERLVLQAARYVGIGLASLVKAFDPGVVVLGGGVALNAPEGYWEALLEAYRRYLQGWEAPPLRRARLGAEAGLLGAALTAYLEVKDGSG,soluble
4,QGMIMTSDIKLLDYLRVRRSTPALQLSEPGPSKGEIEEILRLAVRVPDHGKLAPWRFVVYRGEERVRLSEAALRIALEKNPDLDLQQQEAERTRFTRAPVVIAVISTAKPHFKIPEWEQVMSAGAVCLNVIFAANASGFAANWLTEWLAFDPAFLAEIGVSAEEKVAGYIHIGSTTFPPVERPRPELADVVTWVGDV,soluble
5,MPPCYPFMLSWKGWARDSPGRPGGAMRAHIITYGCQMNEYDSHLVASELVSLGWELVDSVEEADFVLVNTCAVRGKPVEKVRSLLGQLRKEKERRGLLIGMMGCLAQLDEGQQMAKKFGVDVLLGPGALTSLPEALKANERFWDLTFREDVLDYIPPPPKGALSAHVTIIRGCNHHCTYCIVPTTRGPEVSRHPDLILKEIELLKQAGVVEVTLLGQNVNSYGKDQPGFPSFAELLRMVGGMGIPRVRFLTSHPVNFTDDIIEAIAETPAICRYIHLPVQSGSDRVLRRMAREYRRAHYLERIRKIREALPDAVLSTDIIVGFPGETEEDFQETLSLYDEVGYDQAYMFIYSPRPGTPAYKHFQDLPREVKVERLMRLIEKQKEWSYRRNLEWVGKTVEVLVRGEAKEEGFVQGHDRGNHPVLVPASQAPVPGLYQVEIKQATPHLLFGEVVGAEAPAPIPLPVA,soluble
6,GMSESNRQRATGLVQAYYEAFNRGDWDAMLAFLAEDVAHDLNQGPREIGRAAFASFLQRMNDSYREQLRDIVVTANDEGTRVGAEYVVHGVYHTTDEGLPDANGQTYVLPGGAFFDVRDGQITRVTNYYNLQEWIAQVSR,soluble
7,MTDARPRICILGGGFGGLYTALRLGQLSWEGHTPPEIVLVDQRDRFLFAPFLYELVTEEMQTWEIAPPFVELLAESGVIFRQAEVTAIDFDHQKVLLNDQDKGTESLAFDQLVIALGGQTPLPNLPGLKDYGLGFRTLEDAYKLKQKLKSLEQADAEKIRIAIVGGGYSGVELAAKLGDRLGERGRIRIIERGKEILAMSPEFNRQQAQASLSAKGIWVDTETTVTAITATDVTLQFREQEDVIPVDLVLWTVGTTVSPLIRNLALPHNDQGQLRTNAQLQVEGKTNIFALGDGAEGRDASGQLIPTTAQGAFQQTDYCAWNIWANLTGRPLLPCRYQPLGEMLALGTDGAVLSGLGIKLSGPAALLARRLVYLYRFPTWQHQLTVGLNWLTRPLGDWLKNEPSLEHHHHHH,not soluble
8,MVSIKEHLEELLESFDYSGDVEERIRLLRAAIGRIGNMFYGTENEEIYADQVRRIKLRLRELRETYATSEDNWRELMDNLEELRDQIERLAIRGGIIEK,not soluble
9,MAQMYFYYSAMNAGKSTTLLQSSFNYQERGMTPVIFTAALDDRYGVGKVSSRIGLQSDAHLFRPDTNLYQEIAALHEVEKRHCILIDECQFLSKEQVYQLTEVVDKLHIPVLCYGLRTDFLGELFEGSKYLLSWADKLVELKTICHCGRKANMVIRTDEHGVAIKEGDQVAIGGNDRYVSVCRQHYKEALGKLEHHHHHH,soluble
10,MKKVVAVVKLQLPAGKATPAPPVGPALGQHGANIMEFVKAFNAATANMGDAIVPVEITIYADRSFTFVTKTPPASYLIRKAAGLEKGAHKPGREKVGRITWEQVLEIAKQKMPDLNTTDLEAAARMIAGSARSMGVEVVGAPEVKDA,soluble
11,MGSDKIHHHHHHMLKSGGSFFYQVAQGYAMTKQPKTIQEMMTLLVEERGLDITGFSDFSTVLLDCNYYRLSGYFRAFQIDPSHGNNRFRNGTHIKDFMIPYLMDEQLRLLILRGTSSLEQTLRAHFAYYLAQNGGAYSYTELSSYKTIKYSDGTEAREVLIENIHKWLERSSEVCIRHYRNNNEPIPIWAAVEAMPFDTLSKMISLHTNTTAVDELNQSLSLGKNRQRAAQIIHSMVYLRNICSHHCRLWNREIVLPPPVLDATAERYGSYAYEDRSVWKSLIVLMDLIDGIKKNSTYSSMLIKQAESNDNYFWGLCHPKRWH,not soluble
12,GKNVMVEPHRHEGVFICRGKEDALVTKNLVPGESVYGEKRVSISEGDDKIEYRAWNPFRSKLAAAILGGVDQIHIKPGAKVLYLGAASGTTVSHVSDIVGPDGLVYAVEFSHRSGRDLINLAKKRTNIIPVIEDARHPHKYRMLIAMVDVIFADVAQPDQTRIVALNAHTFLRNGGHFVISIKANCIDSTASAEAVFASEVKKMQQENMKPQEQLTLEPYERDHAVVVGVYRP,soluble
13,MCGRIAQKSAPEDYVEILWPNARLIFDDVAGPRYNIPPGTRPLTMHRLVDQAEALARLPWGYKPHGSSFFMINAKLETIERHGWPWKLMIGTGRILVPADGWYEWKALDSGPKPAKQPYYIHGDAPLLFAGLSAWRRGAELDEAHGFAIVTNDALGGMVDVHDRRPVALPPELAREWVDPATPVARAKEILRAGLPETAFSWYPVRQEVGSSKYQLPDAVDPLLEHHHHHH,soluble
14,MGSDKIHHHHHHMKNYKFLVPILLVALLGGSVYKTYSDREKINKQYDNDITQARQNRKLEVYVNAEEDYLDALKLKDSAKLRAELGEMYIEAEDLRTAAKWGESLISEYPKEQVGYEFLIQVYLEQKDYASCFRIKDEADGLKISSKKIEEIISDIKYEYYLEGEYAQVEEFSNGYAAVKKEKKWGYLNSKGHRVIESEFEEAGAFAKEVAPVIDDKGRAFYIDNEGNRKIVIDFVDNIEKLGYMSMDNIFPVNDGKKWSLYSLDSKKKIAGDYDEVSAMGNGVAAVKSDDKWSLIDTKGKKVTKDKYDSVVMDSKGIVCRNDRVFAKQNGYYYLFDSKGNKVVKTKFDDARLFADDGYAAVCVDGKWGFVDKDGKQVIKPQFNEAHSFSNGLAAVRFSNGWGYVDEKGNKVIETGFDDACDFNEQGKTFVKTDDKWQVLTLYLYNHES,not soluble
15,MISCFNRQCPTGTISYTVRAGDTLYLIAGRFNTTVEAILAANPGIVPERLYIGQVICVPYAQPPQPACPIGTSPYEIKSGDTLSKIAAKFNTTVGDILNANPGIIPEKLYVGQKICIPQPKSENPGCPTMNYYVIQKGDTLPAIAKIFNVTVQQLINANPGINPNALYVGQVICIPVAPSSVRIIVSIAAKTLSLYRDGRLVKSYPVATGKPTTPTPRGTFTIINKQVNPGGPFGTRWMGLSQPHYGIHGTNNPASIGTAASNGCIRMYNEDVNELFNLVSVGTPVTIY,soluble
16,MGSDKIHHHHHHMEGYLNSRLVRNAARVALVVAIPATLAGCGINTIPTQDEATKTAWAEVQNQYQRRADLIPNLVATVKGYAAQEKDVLTAVTEARASATQVKVDASTITDPAQFQKFAAAQDQLSGVLGRLMVIQEQYPDLKSNQNFLALQSQLEGTENRITIARRDYNETAQKYNTTLRTFPSLLWAKTLYSDQKPAQLFQASAAAQSAPTVDFSSPPTATPPKVQ,not soluble
